B1: MS_M103205H795-SG1/M103202L889-SK1 (antibody, human IgG1, kappa)
heavy: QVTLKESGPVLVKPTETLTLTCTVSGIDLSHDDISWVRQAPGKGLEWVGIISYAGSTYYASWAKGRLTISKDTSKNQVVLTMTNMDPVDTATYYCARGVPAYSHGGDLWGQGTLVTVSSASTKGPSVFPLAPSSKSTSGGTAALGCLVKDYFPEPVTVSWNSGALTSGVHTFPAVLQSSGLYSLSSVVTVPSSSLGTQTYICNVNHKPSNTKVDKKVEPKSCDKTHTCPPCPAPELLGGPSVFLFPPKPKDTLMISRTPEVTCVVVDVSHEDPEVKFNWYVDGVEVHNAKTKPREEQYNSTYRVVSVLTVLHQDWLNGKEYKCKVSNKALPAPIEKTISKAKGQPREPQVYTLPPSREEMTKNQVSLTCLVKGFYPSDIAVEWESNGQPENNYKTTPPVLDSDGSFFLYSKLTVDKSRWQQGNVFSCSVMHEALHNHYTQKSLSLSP
light: DIVMTQSPATLSLSPGERATLSCTSSQSVYHANWLSWFQQKPGQPPKLLIYWASTLAYGVPSRFSGSGSGTDFTLTISSLQPEDAATYYCAGGYGGGRYAFGQGTKVEIKRTVAAPSVFIFPPSDEQLKSGTASVVCLLNNFYPREAKVQWKVDNALQSGNSQESVTEQDSKDSTYSLSSTLTLSKADYEKHKVYACEVTHQGLSSPVTKSFNRGEC
notes: Parent antibody; also called MS1032LO06-SG1
B2: M103205H795-MY209/M103202L889-SK1 (antibody, human IgG1, kappa)
heavy: QVTLKESGPVLVKPTETLTLTCTVSGIDLSHDDISWVRQAPGKGLEWVGIISYAGSTYYASWAKGRLTISKDTSKNQVVLTMTNMDPVDTATYYCARGVPAYSHGGDLWGQGTLVTVSSASTKGPSVFPLAPSSKSTSGGTAALGCLVKDYFPEPVTVSWNSGALTSGVHTFPAVLQSSGLYSLSSVVTVPSSSLGTQTYICNVNHKPSNTKVDKKVEPKSCDKTHTCPPCPAPELLNGPSVFLFPPKPKDTLMISRTPEVTCVVVDVSDEDPEVKFNWYVDGVEVHNAKTKPREELYNSTYRVVSVLTVLHQDWLNGKEYKCKVSNTALPKPIEKTISKAKGQPREPQVYTLPPSREEMTKNQVSLTCLVKGFYPSDIAVEWESNGQPENNYKTTPPVLDSDGSFFLYSKLTVDKSRWQQGNVFSCSVMHEALHNHYTQKSLSLSP
light: DIVMTQSPATLSLSPGERATLSCTSSQSVYHANWLSWFQQKPGQPPKLLIYWASTLAYGVPSRFSGSGSGTDFTLTISSLQPEDAATYYCAGGYGGGRYAFGQGTKVEIKRTVAAPSVFIFPPSDEQLKSGTASVVCLLNNFYPREAKVQWKVDNALQSGNSQESVTEQDSKDSTYSLSSTLTLSKADYEKHKVYACEVTHQGLSSPVTKSFNRGEC
B3: M103205H795-MY142/M103202L889-SK1 (antibody, human IgG1, kappa)
heavy: QVTLKESGPVLVKPTETLTLTCTVSGIDLSHDDISWVRQAPGKGLEWVGIISYAGSTYYASWAKGRLTISKDTSKNQVVLTMTNMDPVDTATYYCARGVPAYSHGGDLWGQGTLVTVSSASTKGPSVFPLAPSSKSTSGGTAALGCLVKDYFPEPVTVSWNSGALTSGVHTFPAVLQSSGLYSLSSVVTVPSSSLGTQTYICNVNHKPSNTKVDKKVEPKSCDKTHTCPPCPAPELLEGPSVFLFPPKPKDTLMISRTPEVTCVVVDVSEEDPEVKFNWYVDGVEVHNAKTKPREEQYNSTYRVVSVLTVLHQDWLNGKEYKCKVSNKALPAPIEKTISKAKGQPREPQVYTLPPSREEMTKNQVSLTCLVKGFYPSDIAVEWESNGQPENNYKTTPMVLDSDGSFFLYSKLTVDKSRWQQGNVFSCSVMHEALHNHYTQKSLSLSP
light: DIVMTQSPATLSLSPGERATLSCTSSQSVYHANWLSWFQQKPGQPPKLLIYWASTLAYGVPSRFSGSGSGTDFTLTISSLQPEDAATYYCAGGYGGGRYAFGQGTKVEIKRTVAAPSVFIFPPSDEQLKSGTASVVCLLNNFYPREAKVQWKVDNALQSGNSQESVTEQDSKDSTYSLSSTLTLSKADYEKHKVYACEVTHQGLSSPVTKSFNRGEC
B4: M103205H795-MY219/M103202L889-SK1 (antibody, human IgG1, kappa)
heavy: QVTLKESGPVLVKPTETLTLTCTVSGIDLSHDDISWVRQAPGKGLEWVGIISYAGSTYYASWAKGRLTISKDTSKNQVVLTMTNMDPVDTATYYCARGVPAYSHGGDLWGQGTLVTVSSASTKGPSVFPLAPSSKSTSGGTAALGCLVKDYFPEPVTVSWNSGALTSGVHTFPAVLQSSGLYSLSSVVTVPSSSLGTQTYICNVNHKPSNTKVDKKVEPKSCDKTHTCPPCPAPELLGYPSVFLFPPKPKDTLMISRTPEVTCVVVDVSDEDPEVKFNWYVDGVEVHNAKTKPREEQYNSTYRVVSVLTVLHQDWLNGKEYKCKVSNKALPKPIEKTISKAKGQPREPQVYTLPPSREEMTKNQVSLTCLVKGFYPSDIAVEWESNGQPENNYKTTPPVLDSDGSFFLYSKLTVDKSRWQQGNVFSCSVMHEALHNHYTQKSLSLSP
light: DIVMTQSPATLSLSPGERATLSCTSSQSVYHANWLSWFQQKPGQPPKLLIYWASTLAYGVPSRFSGSGSGTDFTLTISSLQPEDAATYYCAGGYGGGRYAFGQGTKVEIKRTVAAPSVFIFPPSDEQLKSGTASVVCLLNNFYPREAKVQWKVDNALQSGNSQESVTEQDSKDSTYSLSSTLTLSKADYEKHKVYACEVTHQGLSSPVTKSFNRGEC
B5: M103205H795-MY143/M103202L889-SK1 (antibody, human IgG1, kappa)
heavy: QVTLKESGPVLVKPTETLTLTCTVSGIDLSHDDISWVRQAPGKGLEWVGIISYAGSTYYASWAKGRLTISKDTSKNQVVLTMTNMDPVDTATYYCARGVPAYSHGGDLWGQGTLVTVSSASTKGPSVFPLAPSSKSTSGGTAALGCLVKDYFPEPVTVSWNSGALTSGVHTFPAVLQSSGLYSLSSVVTVPSSSLGTQTYICNVNHKPSNTKVDKKVEPKSCDKTHTCPPCPAPELLSGPSVFLFPPKPKDTLMISRTPEVTCVVVDVSEEDPEVKFNWYVDGVEVHNAKTKPREEQYNSTYRVVSVLTVLHQDWLNGKEYKCKVSNKALPAPIEKTISKAKGQPREPQVYTLPPSREEMTKNQVSLTCLVKGFYPSDIAVEWESNGQPENNYKTTPMVLDSDGSFFLYSKLTVDKSRWQQGNVFSCSVMHEALHNHYTQKSLSLSP
light: DIVMTQSPATLSLSPGERATLSCTSSQSVYHANWLSWFQQKPGQPPKLLIYWASTLAYGVPSRFSGSGSGTDFTLTISSLQPEDAATYYCAGGYGGGRYAFGQGTKVEIKRTVAAPSVFIFPPSDEQLKSGTASVVCLLNNFYPREAKVQWKVDNALQSGNSQESVTEQDSKDSTYSLSSTLTLSKADYEKHKVYACEVTHQGLSSPVTKSFNRGEC
B6: M103205H795-MY227/M103202L889-SK1 (antibody, human IgG1, kappa)
heavy: QVTLKESGPVLVKPTETLTLTCTVSGIDLSHDDISWVRQAPGKGLEWVGIISYAGSTYYASWAKGRLTISKDTSKNQVVLTMTNMDPVDTATYYCARGVPAYSHGGDLWGQGTLVTVSSASTKGPSVFPLAPSSKSTSGGTAALGCLVKDYFPEPVTVSWNSGALTSGVHTFPAVLQSSGLYSLSSVVTVPSSSLGTQTYICNVNHKPSNTKVDKKVEPKSCDKTHTCPPCPAPELLGYPSVFLFPPKPKDTLMISRTPEVTCVVVDVSDEDPEVKFNWYVDGVEVHNAKTKPREEQYNSTYRVVSVLTVLHQDWLNGKEYKCKVSNKALPKPIEKTISKAKGQPREPQVYTLPPSREEMTKNQVSLTCLVKGFYPSDIAVEWESNGQPENNYKTTPKVLDSDGSFFLYSKLTVDKSRWQQGNVFSCSVMHEALHNHYTQKSLSLSP
light: DIVMTQSPATLSLSPGERATLSCTSSQSVYHANWLSWFQQKPGQPPKLLIYWASTLAYGVPSRFSGSGSGTDFTLTISSLQPEDAATYYCAGGYGGGRYAFGQGTKVEIKRTVAAPSVFIFPPSDEQLKSGTASVVCLLNNFYPREAKVQWKVDNALQSGNSQESVTEQDSKDSTYSLSSTLTLSKADYEKHKVYACEVTHQGLSSPVTKSFNRGEC
B7: M103205H795-MY213/M103202L889-SK1 (antibody, human IgG1, kappa)
heavy: QVTLKESGPVLVKPTETLTLTCTVSGIDLSHDDISWVRQAPGKGLEWVGIISYAGSTYYASWAKGRLTISKDTSKNQVVLTMTNMDPVDTATYYCARGVPAYSHGGDLWGQGTLVTVSSASTKGPSVFPLAPSSKSTSGGTAALGCLVKDYFPEPVTVSWNSGALTSGVHTFPAVLQSSGLYSLSSVVTVPSSSLGTQTYICNVNHKPSNTKVDKKVEPKSCDKTHTCPPCPAPELLNGPSVFLFPPKPKDTLMISRTPEVTCVVVDVSDEDPEVKFNWYVDGVEVHNAKTKPREEQYNSTYRVVSVLTVLHQDWLNGKEYKCKVSNKALPKPIEKTISKAKGQPREPQVYTLPPSREEMTKNQVSLTCLVKGFYPSDIAVEWESNGQPENNYKTTPKVLDSDGSFFLYSKLTVDKSRWQQGNVFSCSVMHEALHNHYTQKSLSLSP
light: DIVMTQSPATLSLSPGERATLSCTSSQSVYHANWLSWFQQKPGQPPKLLIYWASTLAYGVPSRFSGSGSGTDFTLTISSLQPEDAATYYCAGGYGGGRYAFGQGTKVEIKRTVAAPSVFIFPPSDEQLKSGTASVVCLLNNFYPREAKVQWKVDNALQSGNSQESVTEQDSKDSTYSLSSTLTLSKADYEKHKVYACEVTHQGLSSPVTKSFNRGEC

Here are results for seven molecules from patent US20200317768A1 (published 2020).

Usually Kd stands for the equilibrium constant for the complex coming apart. A higher Kd goes with weaker binding.

T1 sequence (P08637 17-208 F176V): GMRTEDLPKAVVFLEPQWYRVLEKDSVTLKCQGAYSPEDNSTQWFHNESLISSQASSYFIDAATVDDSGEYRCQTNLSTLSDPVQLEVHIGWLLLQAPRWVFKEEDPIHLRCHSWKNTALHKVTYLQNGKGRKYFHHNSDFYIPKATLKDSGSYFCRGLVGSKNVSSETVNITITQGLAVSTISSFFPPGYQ

This assay has as its target T1, human FcγRIIIaV extracellular domain, C-terminal His-tag (human, UniProt P08637 17-208).
T1 construct: also called FcgRIIIaV; not shown: His-tag added to C-terminus
The experiment in a line: SPR (Biacore), antibody captured, FcgR analyte, 25 C. Background: SPR reads the build-up and loss of mass on a sensor chip optically.
With B1, the affinity, expressed as Kd, was 0.81 µM.
The figure for B2 is 14 µM; for B3 it is 0.53 µM; for B4 it is 91 µM.
The figure for B5 is 1.5 µM.
The figure for B6 is 18 µM.
In turn, B7 displayed a Kd of 11 µM.
